Laboratory results: article PMC9811624 (The EMBO Journal, 2022)
Read-outs that look alike come from different tables or passages of the source.

Assays:
[1] = target: MBP-OsCBL8 (Oryza sativa (rice)) (UniProt Q3HRN9); test: SPR
[2] = target: MBP-OsCRT3 (Oryza sativa (rice)); test: SPR
[3] = target: MBP-OsCBL8 (Oryza sativa (rice)) (UniProt Q3HRN9); test: SPR; remark: listed apart in the source
[4] = target: MBP-OsCRT3 (Oryza sativa (rice)); test: SPR; remark: listed apart in the source
[5] = target: T1, GST-OsCIPK7 (Oryza sativa (rice), UniProt Q75GK4 1-447); test: pull-down
T1 sequence: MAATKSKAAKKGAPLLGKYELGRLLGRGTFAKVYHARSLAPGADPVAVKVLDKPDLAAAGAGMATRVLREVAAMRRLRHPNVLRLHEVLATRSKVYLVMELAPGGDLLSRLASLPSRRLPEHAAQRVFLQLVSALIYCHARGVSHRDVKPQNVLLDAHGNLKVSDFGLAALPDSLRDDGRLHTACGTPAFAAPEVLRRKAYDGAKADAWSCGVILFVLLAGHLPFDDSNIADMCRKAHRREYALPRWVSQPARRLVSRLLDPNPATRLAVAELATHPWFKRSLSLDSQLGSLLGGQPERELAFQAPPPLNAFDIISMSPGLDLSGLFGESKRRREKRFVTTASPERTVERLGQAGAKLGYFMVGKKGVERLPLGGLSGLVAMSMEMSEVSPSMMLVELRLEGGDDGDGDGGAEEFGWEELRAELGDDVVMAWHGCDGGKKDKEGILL

GST-OsCIPK7-C (domain or fragment)
Kd [1]: 390 nM | Kd [2]: 6490 nM | koff [2]: 0.00157 s⁻¹ | kon [2]: 256 M⁻¹ s⁻¹ | Kd [3]: 340 nM | Kd [4]: 920 nM | koff [4]: 0.00077 s⁻¹ | kon [4]: 684 M⁻¹ s⁻¹

B1: MBP-OsCBL7 (natural protein)
chain: MGCISSKQFKRAAEHEDPAILAKETTFSVSEVEALYELFKKISHSIFKDGLIHKEEFQLALFRNSNKKNLFADRIFDLFDLKRNGVIDFGEFVRSLNIFHPETPLAEKIAFAFRLYDLRGTGYIEREELYEMVLAILNESDLLLSDDAVEQIVDQTFKQADLNSDGKIDPDEWKAFASKNPALLKNMTLPYLKDITMAFPSFVLNSGVDDEEL
binding result [5]: binds

B2: MBP-OsCBL8 (natural protein)
chain: MGCVSSKQFKRAAQHEDPAILAKETTFSVSEVEALFELFKKISHSIFRDGLIHKEEFQLALFRNSNKKNLFANRIFDLFDLKRNGVIDFGEFVRSLSIFHPETPLGDKIAFAFRLYDLRGTGCIEREELHEMVLALLNESDLFLSEEAVEQIVDQTFKQADLNDDGKIDPDEWKTFASKNPALLKNMTLPYLKDITMVFPSFILNSEVCEEEL
binding result [5]: binds
